Results taken from patent publication US10906989 (dated 2021).

T1: staphylocoagulase SC(1-246), unlabeled (UniProt P17855 27-272)
T1 chain: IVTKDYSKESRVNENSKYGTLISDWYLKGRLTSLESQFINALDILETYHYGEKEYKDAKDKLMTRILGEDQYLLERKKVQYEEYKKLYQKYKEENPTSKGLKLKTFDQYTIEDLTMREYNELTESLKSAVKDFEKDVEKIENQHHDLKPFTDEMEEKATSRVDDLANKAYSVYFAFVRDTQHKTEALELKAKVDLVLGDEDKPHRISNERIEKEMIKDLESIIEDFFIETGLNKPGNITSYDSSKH


Biological target: T1, staphylocoagulase SC(1-246), unlabeled
Experiment: fluorescence competitive titration; competitor

Row | Binder | Kd [nM]
1 | GMA-2105 murine monoclonal antibody (antibody, V domains shown) VH: EVKLEESGGGLVQPGGSMKLSCAASGFTFSDAWMDWVRQSPEKGLEWVAEIRTKANNHATYYAESVKGRFTISRDDSKSSVYLQMNSLRAEDTGIYYCTNVYYGNNDVKDYWGQGTSVTVSP VL: DIVMTQSQKFMSTSVGDRVSVTCKASQNVDIYVAWYQQKPGQSPKALIYSASYRFSGVPDRFTGSGSGTDFTLSISNVQSEDLAEYFCQQYNNYPYTFGGGTKLEIKR | 0.71
2 | Chimeric GMA-2105 (antibody, V domains shown) VH: EVKLEESGGGLVQPGGSMKLSCAASGFTFSDAWMDWVRQSPEKGLEWVAEIRTKANNHATYYAESVKGRFTISRDDSKSSVYLQMNSLRAEDTGIYYCTNVYYGNNDVKDYWGQGTSVTVSP VL: DIVMTQSQKFMSTSVGDRVSVTCKASQNVDIYVAWYQQKPGQSPKALIYSASYRFSGVPDRFTGSGSGTDFTLSISNVQSEDLAEYFCQQYNNYPYTFGGGTKLEIKR | 0.75
